From patent US6403087 (Biogen, dated 2002) come the findings set out here.

What all share (test): cell-based or functional assay
The target of one assay is hTNF (human, UniProt P01375 77-233).
The target in a further assay is T1, hLT-α (human, UniProt P01374 35-205, limits assumed).
T1 sequence (looked up): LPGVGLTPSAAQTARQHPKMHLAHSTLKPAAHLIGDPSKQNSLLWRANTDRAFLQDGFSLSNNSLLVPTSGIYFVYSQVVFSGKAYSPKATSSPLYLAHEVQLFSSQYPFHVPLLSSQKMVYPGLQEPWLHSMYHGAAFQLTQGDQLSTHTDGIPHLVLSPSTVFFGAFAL

Assay [1] deals with T2, soluble human LT-α1/β2 ligand (hLT-α1/β2) (human, UniProt P01374 35-205; Q06643 49-244, limits assumed).
T2 sequence (looked up) 1: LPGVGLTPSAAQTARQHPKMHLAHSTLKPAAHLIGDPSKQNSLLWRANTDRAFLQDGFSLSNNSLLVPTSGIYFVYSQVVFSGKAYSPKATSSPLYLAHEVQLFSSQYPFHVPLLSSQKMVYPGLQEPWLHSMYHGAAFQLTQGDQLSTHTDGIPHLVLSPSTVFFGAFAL
T2 sequence (looked up) 2: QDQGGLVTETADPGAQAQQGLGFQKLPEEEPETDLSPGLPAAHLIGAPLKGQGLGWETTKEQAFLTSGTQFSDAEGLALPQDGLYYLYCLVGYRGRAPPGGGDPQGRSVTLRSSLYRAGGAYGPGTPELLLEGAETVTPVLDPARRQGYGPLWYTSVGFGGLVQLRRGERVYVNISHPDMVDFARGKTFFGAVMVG

A value given as a limit tells only on which side of the number the result lay.

Sequence of hTNF (P01375 77-233 limits assumed): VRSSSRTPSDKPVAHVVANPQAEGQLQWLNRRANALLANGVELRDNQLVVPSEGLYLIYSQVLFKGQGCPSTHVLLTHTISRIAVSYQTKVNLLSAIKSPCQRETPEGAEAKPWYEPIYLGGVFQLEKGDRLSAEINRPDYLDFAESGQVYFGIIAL

B1: soluble human LT-β receptor-immunoglobulin Fc fusion protein (hLT-β-R-Fc) (Fc fusion, not shown: a dimerising Fc or GST)
chain: QAVPPYASENQTCRDQEKEYYEPQHRICCSRCPPGTYVSAKCSRIRDTVCATCAENSYNEHWNYLTICQLCRPCDPVMGLEEIAPCTSKRKTQCRCQPGMFCAAWALECTHCELLSDCPPGTEAELKDEVGKGNNHCVPCKAGHFQNTSSPSARCQPHTRCENQGLVEAAPGTAQSDTTCKNPLEPLPPEMSGT
Consider B1, for which the “Concentration of Cytotoxic Agent (ng/ml) Resulting in 50% Growth Inhibition of HT29 cells, in the presence of 5 µg/ml LT-β-R-Fc” value was 0.08 ng/mL in the assay with hTNF, 3 ng/mL with hLT-α and more than 200 ng/mL in assay [1].

B2: soluble TNF-R fusion protein (p55-TNF-R-Fc) (Fc fusion, UniProt P19438 30-211, looked up, not shown: a dimerising Fc or GST)
chain: LVPHLGDREKRDSVCPQGKYIHPQNNSICCTKCHKGTYLYNDCPGPGQDTDCRECESGSFTASENHLRHCLSCSKCRKEMGQVEISSCTVDRDTVCGCRKNQYRHYWSENLFQCFNCSLCLNGTVHLSCQEKQNTVCTCHAGFFLRENECVSCSNCKKSLECTKLCLPQIENVKGTEDSGTT
With B2, the entries for the “Concentration of Cytotoxic Agent (ng/ml) Resulting in 50% Growth Inhibition of HT29 cells, in the presence of 5 µg/ml p55-TNF-R-Fc” value (with hLT-α; in assay [1]) were more than 1000 ng/mL and 5 ng/mL, respectively.
